The values below come from PMC4840364 (Scientific Reports, 2016).

For the test, the target named is T1, glycoprotein Ibα (GPIbα) on human platelets (Homo sapiens, UniProt P07359).
T1 construct: human platelet glycoprotein Ibα, endogenous on platelets; On platelets GPIbα stands in the GPIb-IX complex with GPIbβ and GPIX; also called full length GPIbα expressed on the cell surface; source: endogenous, on human platelets
As to the kind of experiment: flow cytometry on cells; human platelets (1.5 x 10^6 cells/well) incubated with Fab fragments at room temperature for 20 min, FITC-conjugated goat anti-mouse IgG, MFI of 10,000 cells. The conditions noted are these: one partner purified. On the technique in general: In flow cytometry, cells or beads pass a laser one at a time.

Numbering of substitutions follows the chain as printed.

B1: wild-type 5G6 Fab fragment (recombinant) (Fab, V domains shown)
VH: QVTLKESGPGILQPSQTLSLTCSFSGFSLSTSNMGVVWIRQPSGKGLEWLLHILWNDGKFYNPALKSRLTISKDTYNNQVFLKIANVDTADTATYYCARLFTTTTSGYFDVWGAGTTVTVSS
VL: DIQMTQSPASLSASVGETVTITCRASGNIYNYLAWYQQKQGKSPQLLVYNAKTLADGVPSRFSGSGSGTQYSLKINSLQPEDFGSYFCQHFWDTPWTFGGGTKLEIK
notes: heavy chain of 5G6 Fab, as the heavy chain of m1; light chain of 5G6 Fab, as the light chain of m1; cDNA of both chains cloned from 5G6 hybridoma mRNA into pcDNA3.1 with a C-terminal 6xHis tag; also called 5G6-WT; source: CHO cells, transiently cotransfected, purified from medium (Ni-NTA, Superdex 200)
As to B1, the binding result was “binds”.

B2: mutant 5G6 Fab 5G6-M2 (Fab, V domains shown)
VH: B1 VH with T102A, T103A, T104A, T105A
VL: B1 VL with D93A
notes: as the heavy chain of m2 with Thr102-105 of CDRH3 replaced with Ala; as the light chain of m2 with Asp93 of CDRL3 replaced with Ala; five point mutations in the interface
Consider B2, for which the binding result was “no binding”.
